Series [1] has as its target T1, IE86 (IE2) C-terminal fragment (Human cytomegalovirus) (UniProt Q6SWP7).
T1 sequence: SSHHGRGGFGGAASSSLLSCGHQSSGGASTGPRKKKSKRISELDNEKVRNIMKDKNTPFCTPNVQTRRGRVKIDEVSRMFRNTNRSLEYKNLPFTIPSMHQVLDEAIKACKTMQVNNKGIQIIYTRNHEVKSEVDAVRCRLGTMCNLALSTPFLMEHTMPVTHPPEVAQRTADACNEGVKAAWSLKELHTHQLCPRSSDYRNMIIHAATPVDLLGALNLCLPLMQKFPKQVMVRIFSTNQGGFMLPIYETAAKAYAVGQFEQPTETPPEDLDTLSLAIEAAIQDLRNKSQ
As to conditions: FPLC Superose 6; 20 mM HEPES pH 7.4, 250 mM NaCl, 1 mM DTT; most efficient length.

For series [2], the target named is T2, IE86 (IE2) full-length, minimal feedback circuit or virus-encoded (Human cytomegalovirus, UniProt P19893 P19893:1-580).
T2 sequence: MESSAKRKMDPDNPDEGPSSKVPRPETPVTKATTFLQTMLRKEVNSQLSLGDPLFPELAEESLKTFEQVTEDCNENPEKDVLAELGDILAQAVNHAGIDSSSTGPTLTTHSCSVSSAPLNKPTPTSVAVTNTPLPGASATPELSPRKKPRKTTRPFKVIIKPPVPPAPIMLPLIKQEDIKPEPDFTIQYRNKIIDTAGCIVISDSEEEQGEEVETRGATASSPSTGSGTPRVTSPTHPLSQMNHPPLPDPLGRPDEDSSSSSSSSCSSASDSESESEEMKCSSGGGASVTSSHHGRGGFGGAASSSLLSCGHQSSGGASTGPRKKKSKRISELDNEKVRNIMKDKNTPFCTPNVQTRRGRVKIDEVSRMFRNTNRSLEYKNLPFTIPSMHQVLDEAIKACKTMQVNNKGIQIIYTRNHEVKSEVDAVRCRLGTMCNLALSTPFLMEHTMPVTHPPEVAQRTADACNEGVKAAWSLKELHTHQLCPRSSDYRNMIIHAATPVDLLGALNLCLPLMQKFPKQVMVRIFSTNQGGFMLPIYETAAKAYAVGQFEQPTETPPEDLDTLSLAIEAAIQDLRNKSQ
Nature of the series: cell_activity; CMV C-DOT dose-response in 96-well format; indirect, decoy effect. The note with it: tags: MIEP-IE86-IRES-GFP reporter or IE86-YFP virus; chain copies: 2.

Series [3] has as its target T3, IE175 (ICP4) (Herpes simplex virus type 1, UniProt P08392 P08392:1-1298).
T3 sequence: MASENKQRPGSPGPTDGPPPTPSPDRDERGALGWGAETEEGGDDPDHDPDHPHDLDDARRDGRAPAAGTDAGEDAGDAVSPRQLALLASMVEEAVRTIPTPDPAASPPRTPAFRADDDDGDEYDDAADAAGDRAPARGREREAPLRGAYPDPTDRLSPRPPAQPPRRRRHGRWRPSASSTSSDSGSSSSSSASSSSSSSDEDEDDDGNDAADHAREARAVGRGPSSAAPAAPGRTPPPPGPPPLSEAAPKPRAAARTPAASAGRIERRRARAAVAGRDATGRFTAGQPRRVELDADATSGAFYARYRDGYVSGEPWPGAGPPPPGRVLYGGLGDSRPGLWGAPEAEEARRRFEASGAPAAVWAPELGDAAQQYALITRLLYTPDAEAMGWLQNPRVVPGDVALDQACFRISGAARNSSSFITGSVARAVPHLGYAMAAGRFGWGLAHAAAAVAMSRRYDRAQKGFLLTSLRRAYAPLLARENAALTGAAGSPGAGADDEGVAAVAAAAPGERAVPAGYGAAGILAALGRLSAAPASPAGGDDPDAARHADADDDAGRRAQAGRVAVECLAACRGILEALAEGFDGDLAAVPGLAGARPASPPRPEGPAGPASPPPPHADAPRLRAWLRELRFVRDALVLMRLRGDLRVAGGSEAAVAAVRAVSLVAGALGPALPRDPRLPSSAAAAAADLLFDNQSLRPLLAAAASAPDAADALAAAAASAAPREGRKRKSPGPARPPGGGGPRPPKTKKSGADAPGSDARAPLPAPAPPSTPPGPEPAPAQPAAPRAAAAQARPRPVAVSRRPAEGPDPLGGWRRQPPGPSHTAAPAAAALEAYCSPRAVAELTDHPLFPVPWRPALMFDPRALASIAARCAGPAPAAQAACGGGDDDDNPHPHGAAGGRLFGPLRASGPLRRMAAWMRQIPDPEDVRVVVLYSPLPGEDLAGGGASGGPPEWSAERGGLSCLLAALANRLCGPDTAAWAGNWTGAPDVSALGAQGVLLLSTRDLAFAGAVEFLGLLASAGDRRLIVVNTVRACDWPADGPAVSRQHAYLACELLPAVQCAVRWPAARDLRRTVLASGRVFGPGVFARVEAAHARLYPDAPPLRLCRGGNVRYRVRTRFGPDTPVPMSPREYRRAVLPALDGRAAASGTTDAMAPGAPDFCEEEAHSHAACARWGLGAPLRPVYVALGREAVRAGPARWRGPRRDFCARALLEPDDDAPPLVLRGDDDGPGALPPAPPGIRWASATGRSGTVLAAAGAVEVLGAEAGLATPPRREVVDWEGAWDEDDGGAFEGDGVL
Nature of the series: cell_activity; HSV-1 C-DOT dose-response in 96-well format; indirect, decoy effect. As to conditions: tags: YFP fusion, strain 17syn+; chain copies: 2.

Regarding “GACAGATCGTTTAGTGAACCGTACACGA (double strand) [28 bp crs DNA]”, the binding signal (% protein in complex fraction) in series [1] was found to be 98.

B1: C-DOTC (dsDNA)
DNA 1: GACAGATCGTTTAGTGAACCGTACACGA
DNA 2: TCGTGTACGGTTCACTAAACGATCTGTC
modifications: PS at bonds marked * G*ACAGATCGTT*TAGTGAACC*GTACACG*A / T*CGTGTAC*GGTTCACTA*AACGATCTGT*C
As usually defined, the IC50 is the concentration at which inhibition is half-maximal. Low readings indicate inhibition by little substance, high ones a need for much substance. For the molecule B1, the half-maximal inhibitory concentration (IC50) in series [2] was below 1 nM.

B2: C-DOTH (dsDNA)
DNA 1: CCGAGGACGCCCCGATCGTCCACACGGAG
DNA 2: CTCCGTGTGGACGATCGGGGCGTCCTCGG
modifications: PS at bonds marked * CCG*AGGAC*GCCCCGATC*GTCCACACG*GAG / CTC*CGTGTGGAC*GATCGGGGC*GTCCT*CGG
Consider B2, for which the IC50 in series [3] is below 1 nM.

Values taken from patent US20210395746, “COMPOSITIONS FOR […] TRANSCRIPTIONAL FEEDBACK CIRCUIT DISRUPTION AND USES […]” (The J. David Gladstone Institutes, a testamentary trust …, published 2021).
